The target in assay [1] is NM fibers (amyloid fibers assembled from Sup35 NM; also used sonicated as seed) (Saccharomyces cerevisiae) (UniProt P05453). Put plainly: seeded fibre elongation; sedimentation of soluble NM plus acrylodan wavelength-shift assay, Lineweaver-Burk plot (Michaelis-Menten model of soluble NM binding to seed and converting).
Assay [2] has the same target. The experiment in a line: seeded fibre elongation; sedimentation of soluble NM plus acrylodan wavelength-shift assay, Lineweaver-Burk plot.

What is called Km is the concentration of substrate that gives half-maximal velocity.

Chain of NM fibers (amyloid fibers assembled from Sup35 NM; also used sonicated as seed) (Saccharomyces cerevisiae) (P05453 1-253): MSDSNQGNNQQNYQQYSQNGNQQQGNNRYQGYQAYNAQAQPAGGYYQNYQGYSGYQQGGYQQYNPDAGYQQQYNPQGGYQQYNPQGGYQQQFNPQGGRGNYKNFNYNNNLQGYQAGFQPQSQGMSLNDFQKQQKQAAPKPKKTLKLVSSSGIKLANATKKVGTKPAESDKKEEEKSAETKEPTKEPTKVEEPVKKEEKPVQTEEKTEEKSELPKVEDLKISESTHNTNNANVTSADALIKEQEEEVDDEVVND

Regarding “NM^T158C-acrylodan (soluble) (from UniProt P05453 1-253) (other; other documents disagree on this pair)”, the Km in assay [1] was determined as 0.12 µM. The kconf/Km (conformational conversion efficiency) in assay [2] worked out at 42000 M⁻¹ s⁻¹.
